We go through two molecules from publication PMC2270906, “The CD81 Partner EWI-2wint Inhibits Hepatitis C Virus Entry” (PLoS ONE, 2008).

Assay [1] deals with T1, CD81 (endogenous, human cells) (human (endogenous in Daudi, Ramos, …, UniProt P60033 1-236)).
T1 sequence: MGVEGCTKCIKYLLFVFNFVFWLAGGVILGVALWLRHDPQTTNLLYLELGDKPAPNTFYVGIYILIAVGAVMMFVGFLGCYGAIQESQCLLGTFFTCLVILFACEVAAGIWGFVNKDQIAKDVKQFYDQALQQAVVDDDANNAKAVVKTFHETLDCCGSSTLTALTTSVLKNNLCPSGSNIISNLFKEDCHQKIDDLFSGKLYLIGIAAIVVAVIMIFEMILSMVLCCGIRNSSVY
The assay can be described thus: cell-based or functional assay.

The target of assay [2] is HCV E1E2 heterodimers (expressed from recombinant adenovirus Ad/E1E2p7NS2) (hepatitis C virus). The assay can be described thus: pull-down; E1E2 on mAb H53 beads; Huh-7/EWI-2FLAG^fur cells lysed in Bj/EDTA, ratio of the CD81 band to that in TX/EDTA.
The target is the same in assay [3]. The assay can be described thus: pull-down; E1E2 on mAb H53 beads; Huh-7/pcDNA3.1 cells lysed in Bj/EDTA, ratio of the CD81 band to that in TX/EDTA.

B1: EWI-2wint with the C-terminal FLAG epitope, produced by furin cleavage of EWI-2FLAG^fur in Huh-7 cells (domain or fragment)
chain: QAPTSPPRMTVHEGQELALGCLARTSTQKHTHLAVSFGRSVPEAPVGRSTLQEVVGIRSDLAVEAGAPYAERLAAGELRLGKEGTDRYRMVVGGAQAGDAGTYHCTAAEWIQDPDGSWAQIAEKRAVLAHVDVQTLSSQLAVTVGPGERRIGPGEPLELLCNVSGALPPAGRHAAYSVGWEMAPAGAPGPGRLVAQLDTEGVGSLGPGYEGRHIAMEKVASRTYRLRLEAARPGDAGTYRCLAKAYVRGSGTRLREAASARSRPLPVHVREEGVVLEAVAWLAGGTVYRGETASLLCNISVRGGPPGLRLAASWWVERPEDGELSSVPAQLVGGVGQDGVAELGVRPGGGPVSVELVGPRSHRLRLHSLGPEDEGVYHCAPSAWVQHADYSWYQAGSARSGPVTVYPYMHALDTLFVPLLVGTGVALVTGATVLGTITCCFMKRLRKR
For B1, the “inhibition of the infectivity of HCVcc expressing Renilla luciferase on Huh-7 cells expressing EWI-2FLAG^fur (clone A6), relative to Huh-7 cells; the pair that is blocked: HCV glycoproteins with CD81” value in assay [1] was found to be 80%.

B2: CD81 (endogenous, human cells) (natural protein)
chain: T1 sequence
As to B2, the ratio [CD81 band intensity in E1E2 IP in Bj/EDTA buffer]/[CD81 band intensity in E1E2 IP in TX/EDTA buffer] in assay [2] amounted to 0.27; in assay [3] it was 0.84.
